Assay results taken from PMC6701479, “KAP1 is an antiparallel dimer with a functional asymmetry” (Life Science Alliance, 2019).

Key:
[1] = biological target: the molecule itself; assay: SEC-MALS; KAP1 constructs alone, 10 to 40 μM; Superose 6 10/300 GL; 20 mM Hepes pH 7.5, 300 mM NaCl, 2 mM TCEP
Atto 532–labeled HP1α = Atto 532–labeled HP1α (UniProt P45973 1-191, Atto 532 on a tripeptide (Thz-G2-C3-CONH2, thiazolidine opened) joined to the C terminus; C-terminal amide); assay: cell-based or functional assay
Sequence of Atto 532–labeled HP1α (P45973 whole entry): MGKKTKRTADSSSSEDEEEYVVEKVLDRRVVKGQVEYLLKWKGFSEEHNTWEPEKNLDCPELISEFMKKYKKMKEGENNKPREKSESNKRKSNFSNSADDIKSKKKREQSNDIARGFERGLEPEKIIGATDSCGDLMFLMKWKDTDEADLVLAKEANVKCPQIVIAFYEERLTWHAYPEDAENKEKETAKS

slow residence time τ_(off,2) of HP1α on H3K9me3 chromatin fibers (smTIRF), KAP1 50 to 400 nM (Atto 532–labeled HP1α) | Binder | stoichiometry N [1]
~3 fold | KAP1 full-length protein (KAP1 FL, 1–835) (natural protein, human, UniProt Q13263 1-835, looked up, KAP1 (TRIM28, TIF1β), human, residues 1–835, complete full-length protein; His6 tag followed by a TEV protease cleavage site precedes the protein (pETDuet-1); no cleavage step is described; also called TIF1β; TRIM28; source: E. coli Rosetta (DE3) / Rosetta (DE3) pLys, purified (HisTrap, desalting, SEC)) MAASAAAASAAAASAASGSPGPGEGSAGGEKRSTAPSAAASASASAAASSPAGGGAEALELLEHCGVCRERLRPEREPRLLPCLHSACSACLGPAAPAAANSSGDGGAAGDGTVVDCPVCKQQCFSKDIVENYFMRDSGSKAATDAQDANQCCTSCEDNAPATSYCVECSEPLCETCVEAHQRVKYTKDHTVRSTGPAKSRDGERTVYCNVHKHEPLVLFCESCDTLTCRDCQLNAHKDHQYQFLEDAVRNQRKLLASLVKRLGDKHATLQKSTKEVRSSIRQVSDVQKRVQVDVKMAILQIMKELNKRGRVLVNDAQKVTEGQQERLERQHWTMTKIQKHQEHILRFASWALESDNNTALLLSKKLIYFQLHRALKMIVDPVEPHGEMKFQWDLNAWTKSAEAFGKIVAERPGTNSTGPAPMAPPRAPGPLSKQGSGSSQPMEVQEGYGFGSGDDPYSSAEPHVSGVKRSRSGEGEVSGLMRKVPRVSLERLDLDLTADSQPPVFKVFPGSTTEDYNLIVIERGAAAAATGQPGTAPAGTPGAPPLAGMAIVKEEETEAAIGAPPTATEGPETKPVLMALAEGPGAEGPRLASPSGSTSSGLEVVAPEGTSAPGGGPGTLDDSATICRVCQKPGDLVMCNQCEFCFHLDCHLPALQDVPGEEWSCSLCHVLPDLKEEDGSLSLDGADSTGVVAKLSPANQRKCERVLLALFCHEPCRPLHQLATDSTFSLDQPGGTLDLTLIRARLQEKLSPPYSSPQEFAQDVGRMFKQFNKLTEDKADVQSIIGLQRFFETRMNEAFGDTKFSAVLVEPPPMSLPGAGLSSQELSGGPGDGP | 2
 | KAP1 RBCC domain (RBCC, 23–418) (domain or fragment, human, UniProt Q13263 23-418, looked up, KAP1 (TRIM28), human, RBCC domain (RING, B-box 1, B-box 2, coiled coil), residues 23–418; His6 tag and TEV site precede the protein; no cleavage step is described; also called N-terminal RBCC domain of KAP1; source: E. coli Rosetta (DE3) / Rosetta (DE3) pLys, purified (HisTrap, desalting, SEC)) GEGSAGGEKRSTAPSAAASASASAAASSPAGGGAEALELLEHCGVCRERLRPEREPRLLPCLHSACSACLGPAAPAAANSSGDGGAAGDGTVVDCPVCKQQCFSKDIVENYFMRDSGSKAATDAQDANQCCTSCEDNAPATSYCVECSEPLCETCVEAHQRVKYTKDHTVRSTGPAKSRDGERTVYCNVHKHEPLVLFCESCDTLTCRDCQLNAHKDHQYQFLEDAVRNQRKLLASLVKRLGDKHATLQKSTKEVRSSIRQVSDVQKRVQVDVKMAILQIMKELNKRGRVLVNDAQKVTEGQQERLERQHWTMTKIQKHQEHILRFASWALESDNNTALLLSKKLIYFQLHRALKMIVDPVEPHGEMKFQWDLNAWTKSAEAFGKIVAERPGTNST | 2
 | ΔKAP1 (23–812) (domain or fragment, human, UniProt Q13263 23-812, looked up, His6 tag and TEV site precede the protein; no cleavage step is described; source: E. coli Rosetta (DE3) / Rosetta (DE3) pLys, purified (HisTrap, desalting, SEC)) GEGSAGGEKRSTAPSAAASASASAAASSPAGGGAEALELLEHCGVCRERLRPEREPRLLPCLHSACSACLGPAAPAAANSSGDGGAAGDGTVVDCPVCKQQCFSKDIVENYFMRDSGSKAATDAQDANQCCTSCEDNAPATSYCVECSEPLCETCVEAHQRVKYTKDHTVRSTGPAKSRDGERTVYCNVHKHEPLVLFCESCDTLTCRDCQLNAHKDHQYQFLEDAVRNQRKLLASLVKRLGDKHATLQKSTKEVRSSIRQVSDVQKRVQVDVKMAILQIMKELNKRGRVLVNDAQKVTEGQQERLERQHWTMTKIQKHQEHILRFASWALESDNNTALLLSKKLIYFQLHRALKMIVDPVEPHGEMKFQWDLNAWTKSAEAFGKIVAERPGTNSTGPAPMAPPRAPGPLSKQGSGSSQPMEVQEGYGFGSGDDPYSSAEPHVSGVKRSRSGEGEVSGLMRKVPRVSLERLDLDLTADSQPPVFKVFPGSTTEDYNLIVIERGAAAAATGQPGTAPAGTPGAPPLAGMAIVKEEETEAAIGAPPTATEGPETKPVLMALAEGPGAEGPRLASPSGSTSSGLEVVAPEGTSAPGGGPGTLDDSATICRVCQKPGDLVMCNQCEFCFHLDCHLPALQDVPGEEWSCSLCHVLPDLKEEDGSLSLDGADSTGVVAKLSPANQRKCERVLLALFCHEPCRPLHQLATDSTFSLDQPGGTLDLTLIRARLQEKLSPPYSSPQEFAQDVGRMFKQFNKLTEDKADVQSIIGLQRFFETRMNEAFGDTKFSAVLVEP | 2
